Measurements published in US20230203100A1, “COMPOSITIONS INCLUDING MULTI-AGONIST PEPTIDES AND METHODS OF MANUFACTURE AND USE” (Pep2Tango Therapeutics Inc., priority 2021, published 2023).
Like-named read-outs stand apart in the source and are kept apart here. Each block holds one molecule with its values, some of them ahead of it. Starred links: 1 amine or outer side, 2 acyl side, 3 side chain; linkers in the order of their positions; H or OH if unused. Non-standard residues stand in square brackets, D forms with d. Groups on a side chain read outwards from the residue. γGlu = O=C(O)[C@H](CCC(=O)[*:2])N[*:1]; C(:O)(CH2)nR3 = not defined here; Aib = CC(C)(N)C(=O)O

Assays:
[1] = molecular target: Human GLP-1 receptor (human) (UniProt P43220)
[2] = in vivo; cited from earlier work
[3] = cited from earlier work
[4] = molecular target: Human GLP-1 receptor (human, UniProt P43220); experiment: cell-based or functional assay
[5] = molecular target: T1, Human calcitonin receptor (human, UniProt P30988); experiment: cell-based or functional assay
T1 sequence: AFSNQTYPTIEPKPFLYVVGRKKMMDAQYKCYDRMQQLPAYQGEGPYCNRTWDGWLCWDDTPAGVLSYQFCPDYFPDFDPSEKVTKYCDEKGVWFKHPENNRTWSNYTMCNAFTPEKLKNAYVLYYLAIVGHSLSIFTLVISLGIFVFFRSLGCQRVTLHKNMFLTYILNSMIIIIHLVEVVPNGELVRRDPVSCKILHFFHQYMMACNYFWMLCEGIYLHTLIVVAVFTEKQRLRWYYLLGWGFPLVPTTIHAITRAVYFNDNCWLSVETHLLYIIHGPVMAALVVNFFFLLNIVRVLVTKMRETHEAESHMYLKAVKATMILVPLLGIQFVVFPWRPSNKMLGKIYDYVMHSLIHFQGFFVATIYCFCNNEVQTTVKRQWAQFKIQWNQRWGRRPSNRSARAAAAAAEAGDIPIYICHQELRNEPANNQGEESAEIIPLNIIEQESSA

[6] = molecular target: T2, Human AMY3 receptor (CT/RAMP3) (human, UniProt P30988); experiment: cell-based or functional assay
T2 sequence 1: T1 sequence
T2 sequence 2: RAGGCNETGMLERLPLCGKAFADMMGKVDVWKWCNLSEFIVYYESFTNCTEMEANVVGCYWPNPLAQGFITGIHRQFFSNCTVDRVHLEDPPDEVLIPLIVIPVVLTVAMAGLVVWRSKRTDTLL

[7] = molecular target: T3, Human GIP receptor (human, UniProt P48546); experiment: cell-based or functional assay
T3 sequence: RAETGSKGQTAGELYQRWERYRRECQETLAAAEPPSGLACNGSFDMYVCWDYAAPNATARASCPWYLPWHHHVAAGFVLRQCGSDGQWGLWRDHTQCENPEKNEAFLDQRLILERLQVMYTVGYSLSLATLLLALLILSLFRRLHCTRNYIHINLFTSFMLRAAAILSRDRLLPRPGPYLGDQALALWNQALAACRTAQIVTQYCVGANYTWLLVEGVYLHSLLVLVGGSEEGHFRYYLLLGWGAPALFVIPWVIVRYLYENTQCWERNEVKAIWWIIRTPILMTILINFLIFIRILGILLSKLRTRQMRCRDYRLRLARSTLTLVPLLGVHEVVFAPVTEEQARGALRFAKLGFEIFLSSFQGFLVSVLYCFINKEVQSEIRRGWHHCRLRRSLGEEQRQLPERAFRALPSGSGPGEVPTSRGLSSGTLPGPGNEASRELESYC

[8] = Blood glucose after single s.c. administration in non-fasted mice; type: in vivo; settings: 50 nmoles/Kg single s.c., mean±SEM
Procedure: (§1) Differences were considered statistically significant at p<0.05. Data analysis was carried out with GraphPad software (GraphPad Prism).

[9] = Acute food intake in lean mice after single s.c. administration; type: in vivo, C57BL/6j male mice; settings: 50 nmoles/kg single s.c., time period not given, mean±SEM
Procedure: as §1

[10] = Body weight in lean rats after single s.c. administration; type: in vivo, Sprague Dawley male rats; settings: mean±SEM
Procedure: (§2) Sprague Dawley male rats (5 weeks of age) were purchased from Charles River (Spain) and single housed for individual registration of food consumption. […] Rats were fed ad libitum a standard rodent chow diet (CHD) (A04, U8220G10R, SAFE).
(§3) For all experimental groups, food was replaced immediately after lights were turned off.
(§4) Food intake was measured at different time-intervals post-injection up to 72 h using a precision balance. Cumulative food intake was calculated for the indicated time-periods. Body weight was measured at the indicated time-periods. Mean accumulated food intake in each dose group was compared to vehicle and reported as a percentage of mean food intake in the vehicle group, which was defined as 100%.
(§5) All data shown are the mean ± standard error (SEM).

[11] = Acute food intake in lean rats after single s.c. administration; type: in vivo, Sprague Dawley male rats; settings: 50 nmoles/kg single s.c., mean +/- SEM
Procedure: as §2, §3, §4, §5

Molecule: Exendin-4 (from UniProt P26349) (ligand)
EC50 (nM), cAMP cell-based agonist assay [1]: 0.007 nM

Molecule: glucagon-like peptide-1 [GLP-1]
metabolic clearance rate of active GLP-1 [2]: 12 to 13 min

Molecule: CC[C@H](C)[C@H](NC(=O)[C@H](CO)NC(=O)[C@H](Cc1ccc(O)cc1)NC(=O)[C@H](CC(=O)O)NC(=O)[C@H](CO)NC(=O)[C@@H](NC(=O)[C@H](Cc1ccccc1)NC(=O)[C@@H](NC(=O)CNC(=O)[C@H](CCC(=O)O)NC(=O)[C@H](C)NC(=O)[C@@H](N)Cc1ccc(O)cc1)[C@@H](C)O)[C@@H](C)CC)C(=O)N[C@@H](C)C(=O)N[C@@H](CCSC)C(=O)N[C@@H](CC(=O)O)C(=O)N[C@@H](CCCCN)C(=O)N[C@H](C(=O)N[C@@H](Cc1c[nH]cn1)C(=O)N[C@@H](CCC(N)=O)C(=O)N[C@@H](CCC(N)=O)C(=O)N[C@@H](CC(=O)O)C(=O)N[C@@H](Cc1ccccc1)C(=O)N[C@H](C(=O)N[C@@H](CC(N)=O)C(=O)N[C@@H](Cc1c[nH]c2ccccc12)C(=O)N[C@@H](CC(C)C)C(=O)N[C@@H](CC(C)C)C(=O)N[C@@H](C)C(=O)N[C@@H](CCC(N)=O)C(=O)N[C@@H](CCCCN)C(=O)NCC(=O)N[C@@H](CCCCN)C(=O)N[C@@H](CCCCN)C(=O)N[C@@H](CC(N)=O)C(=O)N[C@@H](CC(=O)O)C(=O)N[C@@H](Cc1c[nH]c2ccccc12)C(=O)N[C@@H](CCCCN)C(=O)N[C@@H](Cc1c[nH]cn1)C(=O)N[C@@H](CC(N)=O)C(=O)N[C@H](C(=O)N[C@H](C(=O)N[C@@H](CCC(N)=O)C(=O)O)[C@@H](C)O)[C@@H](C)CC)C(C)C)[C@@H](C)CC [GIP, glucose-dependent insulinotropic polypeptide]
half-life of intact GIP ([3]; diabetic subjects): ~5.2 min
half-life of intact GIP ([3]; healthy subjects): approximately 7.3 minutes

B2: Peptide No. 15 (peptide)
peptide: Y[dA]EGTFTSDYSIALDKIAQQAFVQWLLAGGPSCNTATCVLGRLSQELHRLQTYPRTNTGK([γGlu-γGlu-C(:O)(CH2)nR3])NTY-NH2
modifications: reading uncertain; also: K* n and R3 not given here, acetate salt
EC50 (nM), cAMP cell-based agonist assay [4]: 5.2 nM
EC50 (nM), cAMP cell-based agonist assay [5]: 0.071 nM
EC50 (nM), cAMP cell-based agonist assay [6]: 1.1 nM
EC50 (nM), cAMP cell-based agonist assay [7]: 0.13 nM

B6: (d)YAEGTFTSDYSIALDKIAQQAFVQWLLAGGPSCNTATCVLGRLSQELHRLQTYPRTNTGK*-N-T-Y-NH2 (peptide)
chain: [dY]AEGTFTSDYSIALDKIAQQAFVQWLLAGGPSCNTATCVLGRLSQELHRLQTYPRTNTGKNTY-NH2
modifications: not fully specified (residue 60); also: acyl end R3 and chain length n (12-20) not fixed
notes: K* indicates a linking group, e.g. Lys-γGlu-γGlu—C(═O)(CH2)nR3
Blood glucose 30 min ([8]; 30 min after injection): 140.4 ± 8.41 mg/dL
Blood glucose 120 min ([8]; 120 min after injection): 138.4 ± 1.63 mg/dL
Blood glucose Time 0 ([8]; time 0 (baseline)): 159.6 ± 5.78 mg/dL
Cumulative Food Intake Reduction Relative to Vehicle (%) ([9]; 1st of 4 value columns): 20.5±0.86%
Cumulative Food Intake Reduction Relative to Vehicle (%) ([9]; 2nd of 4 value columns): 25.3±1.93%
Cumulative Food Intake Reduction Relative to Vehicle (%) ([9]; 3rd of 4 value columns): 12.2±4.03%
Cumulative Food Intake Reduction Relative to Vehicle (%) ([9]; 4th of 4 value columns): 2.6±5.68%
Body Weight Reduction (G) 24 h ([10]; 24 h): -9.0 ± 1.01 g
Body Weight Reduction (G) 48 h ([10]; 48 h): -13.0 ± 0.84 g
Body Weight Reduction (G) 72 h ([10]; 72 h): -14.8 ± 1.30 g
Cumulative Food Intake Reduction vs. Vehicle (%) 12 hr. ([11]; cumulative to 12 hr.): 21.8 +/- 2.62%
Cumulative Food Intake Reduction vs. Vehicle (%) 24 hr. ([11]; cumulative to 24 hr.): 31.8 +/- 2.10%
Cumulative Food Intake Reduction vs. Vehicle (%) 48 hr. ([11]; cumulative to 48 hr.): 32.3 +/- 1.66%
Cumulative Food Intake Reduction vs. Vehicle (%) 72 hr. ([11]; cumulative to 72 hr.): 28.7 +/- 1.69%
Food Intake Reduction by Intervals vs. Vehicle (%) 0-12 hr. ([11]; interval 0-12 hr.): 21.8 +/- 2.62%
Food Intake Reduction by Intervals vs. Vehicle (%) 12-24 hr. ([11]; interval 12-24 hr.): 89.1 +/- 3.69%
Food Intake Reduction by Intervals vs. Vehicle (%) 24-48 hr. ([11]; interval 24-48 hr.): 32.8 +/- 3.69%
Food Intake Reduction by Intervals vs. Vehicle (%) 48-72 hr. ([11]; interval 48-72 hr.): 19.4 +/- 2.31%

B7: Peptide No. 10 (peptide)
peptide: Y[Aib]EGTFTSDYSI[Aib]LDKIAQK([γGlu-γGlu-C(:O)(CH2)nR3])AFVQWLLAGGPSCNTATCATQRLANFLVHSSNNFGPILPPTNVGSNTY-NH2
modifications: reading uncertain; also: K* acyl n and R3 not given here, acetate salt, printed as Y-Aib-E-G-T-F-T-S-D-Y-S-I-Aib-L-D-K-I-A-Q-K*-AFVQWLLAGGPSCNTATCATQRLANFLVHSSNNFGPILPPTNVGSNTY-NH2
EC50 (nM), cAMP cell-based agonist assay [4]: 3.87 nM
EC50 (nM), cAMP cell-based agonist assay [5]: 12.4 nM
EC50 (nM), cAMP cell-based agonist assay [6]: 7 nM
EC50 (nM), cAMP cell-based agonist assay [7]: 0.05 nM

Results, then the molecule that gave them:

EC50 (nM), cAMP cell-based agonist assay [4]: 43 nM
EC50 (nM), cAMP cell-based agonist assay [5]: 0.11 nM
EC50 (nM), cAMP cell-based agonist assay [6]: 1.6 nM
EC50 (nM), cAMP cell-based agonist assay [7]: 20 nM
B1: Peptide No. 21 (peptide)
peptide: [dY]AEGTFTSDYSIQLDKIAQQAFVQWLLAGSGCNTATCVLGRLSQELHRLQTYPRTNTGK([γGlu-γGlu-C(:O)(CH2)nR3])NTY-NH2
modifications: reading uncertain; also: K* n and R3 not given here, acetate salt

EC50 (nM), cAMP cell-based agonist assay [4]: 5.7 nM
EC50 (nM), cAMP cell-based agonist assay [5]: 0.1 nM
EC50 (nM), cAMP cell-based agonist assay [6]: 1.3 nM
EC50 (nM), cAMP cell-based agonist assay [7]: 0.81 nM
B3: Peptide No. 17 (peptide)
peptide: [dY]AEGTFTSDYSIALDKIAQQAFVQWLLAGGPSCNTATCVLGRLSQELHRLQTYPRTNTGK([γGlu-γGlu-C(:O)(CH2)nR3])NTY-NH2
modifications: reading uncertain; also: K* n and R3 not given here, acetate salt

EC50 (nM), cAMP cell-based agonist assay [4]: 8.23 nM
EC50 (nM), cAMP cell-based agonist assay [5]: 0.1 nM
EC50 (nM), cAMP cell-based agonist assay [6]: 1.03 nM
EC50 (nM), cAMP cell-based agonist assay [7]: 4.6 nM
B4: Peptide No. 19 (peptide)
peptide: [dY]AEGTFTSDYSIQLDKIAQQAFVQWLLAGGPSCNTATCVLGRLSQELHRLQTYPRTNTGK([γGlu-γGlu-C(:O)(CH2)nR3])NTY-NH2
modifications: reading uncertain; also: K* n and R3 not given here, acetate salt

EC50 (nM), cAMP cell-based agonist assay [4]: 42 nM
EC50 (nM), cAMP cell-based agonist assay [5]: 5.78 nM
EC50 (nM), cAMP cell-based agonist assay [6]: 15 nM
EC50 (nM), cAMP cell-based agonist assay [7]: 16 nM
B5: Peptide No. 22 (peptide)
peptide: [dY]AEGTFTSDYSIQLDKIAQQAFVQWLLAGSGCNTATCATQRLANFLVHSSNNFGPILPPTNVGK([γGlu-γGlu-C(:O)(CH2)nR3])NTY-NH2
modifications: reading uncertain; also: K* n and R3 not given here, acetate salt
